Measured values as given in PMC6435465.

Legend:
[1] = biological target: YabJ from Staphylococcus aureus Mu50 (SAV0497), native recombinant (Staphylococcus aureus Mu50); test: SDS/PAGE; 12% polyacrylamide gel, samples treated with 1% SDS and 5% 2-mercaptoethanol at 100°C for 5 min; trimer band at 50 kDa, monomer band at 16 kDa
[2] = biological target: YabJ from Staphylococcus aureus Mu50 (SAV0497), native recombinant (Staphylococcus aureus Mu50); test: SEC; size-exclusion chromatography of native and chemically treated SAYabJ; excess HOCl, DTT and H2O2 removed by dialysis beforehand; Superdex 75 (10/300 GL), 50 mM Tris/HCl pH 7.5, 200 mM NaCl named for the purification
[3] = biological target: YabJ from Staphylococcus aureus Mu50 (SAV0497), native recombinant (Staphylococcus aureus Mu50); test: crystal structure; 1.75 Å, space group P2(1), six molecules per asymmetric unit; crystals from 25% PEG3350, 100 mM Tris/HCl pH 8.5, 293 K; interfaces calculated with PISA
[4] = biological target: chlorinated and reduced SAYabJ (HOCl-treated, then DTT-reduced YabJ from S. aureus Mu50) (Staphylococcus aureus Mu50); test: SDS/PAGE; 12% polyacrylamide gel, samples treated with 1% SDS and 5% 2-mercaptoethanol at 100°C for 5 min; trimer band at 50 kDa, monomer band at 16 kDa

Row | stoichiometry N [1] | stoichiometry N [2] | stoichiometry N [3] | Substance | stoichiometry N [4]
1 | 3 | 3 | 3 | YabJ from Staphylococcus aureus Mu50 (SAV0497), native recombinant (natural protein) | –
2 | – | – | – | chlorinated and reduced SAYabJ (HOCl-treated, then DTT-reduced YabJ from S. aureus Mu50) (natural protein) | 3
